The values below come from US20060223140.

Series [1] has as its target T1, PAMP-12.
T1 chain: FRKKWNKWALSR

Series [2] deals with bradykinin.
The target of series [3] is T2, peptide-T.
T2 chain: ASTTTNYT

B1: recombinant endo-α-N-acetylgalactosaminidase derived from Bifidobacterium longum JCM1217 (protein)
chain: MKKKKTISAALATALALTCMGSGGGTAFAVPLSDADLQTLASQIQQINDTSDSATASETPSAQADAVEGWTIDSNIAQGGEILEMANGWLHLKSTASNGNAAANPSSSNNWPAVAVWGTDYDFSKAGSFHATIKSPQEGSANRFGFYLGYNDPGSGLFIGYDSGGWFWQTYTGGGSGSWYSGARIAAPSANEEHDIRVSWTDAKVATLTVDGQKAFDVDYSAMTNLSNKLAIKAGSWKELNEVTDVYIKDFPEVVEAAKHAVSGKVVDAGGAAIEGATVRLDKTKVKTGADGTFSFADIEEGEHTLSIAKEGYEDVSQQVTVSGADLAIDPITLNKTVQVASETLKTKKMEVQIKKNFPSVLQYTMTDGKVMYGQSKDVRTVEINGTNIELGDDDVTFKKVSDTEATYTLKVKDEAKKIDAVITVQITVKANQLHLNVTKIKNNLSEGIPEGNGVEENAIQTLSFPNQSLVSVRSSQENAQFTGARMSSNTQKPGDTNFAVTEDTNVTDSDYTYGFISGAGLSAGLWSNSEHDGTYVAAPVRGGSQNTRVYATTQQTGDATSLGLASAPWYYHRTVTDSKGKKYTVAETALPQMAVAIAGDENEDGAVNWQDGAIAYRDIMNNPYKSEEVPELVAWRIAMNFGSQAQNPFLTTLDNVKKVALNTDGLGQSVLLKGYGNEGHDSGHPDYGDIGQRLGGADDMNTMMEEGSKYGARFGVHVNASEMYPEAKAFSEDMVRRNSAGGLSYGWNWLDQGVGIDGIYDLASGSRVSRFADLSKEVGDNMDFIYLDVWGNLTSSGSEDSWETRKMSKMINDNGWRMTTEWGSGNEYDSTFQHWAADLTYGGYTSKGENSEVMRFLRNHQKDSWVGDYPQYGGAANAPLLGGYNMKDFEGWQGRNDYAAYIKNLYTHDVSTKFIQHFKVTRWVNNPLLTADNGNAAAVSDPNTNNGNEQITLKDSNGNVVVVSRGSNDTSSAAYRQRTITFNGVKVASGVVSAGDGSATGDESYLLPWMWDSFTGKLVKDSEQKLYHWNTKGGTTTWTLPDSWKNLSSVKVYQLTDQGKTNEQTVAVSGGKVTLTADAETPYVVYKGEAKQIQVNWSEGMHVVDAGFNGGSNTLTDNWTVSGSGKAEVEGDNNAMLRLTGKVDVSQRLTDLKAGQKYALYVGVDNRSTGDASVTVTSGGKVLATNSTGKSIAKNYIKAYGHNTNSNTENGSSYFQNMYVFFTAPENGDATVTLSHKSTDGAHTYFDDVRIVENQYSGITYEKDGTLKSLTNGFENNAQGIWPFVVSGSEGVEDNRIHLSELHAPFTRAGWDVKKMDDVLDGTWSVKVNGLTQKGTLVYQTIPQNVKFEAGAKYKVSFDYQSGSDDIYAIAVGQGEYSAGSVKLTNLKKALGETGKAEFELTGGVNGDSWFGIYSTATAPDLQGSTGNAQDFGGYKDFVLDNLKIERIESQTRTKAEAQDKVKEIRGKYDSKRAELSDAAWQQYQDTLVKARVLINKNGATAEDFTKAYDILVALDEYMKTAPGNESSDKYDVAADGSDELGGYTVATGSEEPTAGLPSEGPADLAQDGNDSTHWHTSWSENAVGNGTAWYQFNLNEPTTINGLRYLPRSGGMNANGKIKGYKITLTLADGTTKDVVTDAEFSTTTMWQKASFDAVENVTAVRSTVLSSAGQSDSQANKFASAAELRLTTDREVEEETVAPDKTDLNDTIAKANGLKESDYTAESWTALVKAREAAQAVADNDKATAYDVALALTNLESAIAGLEKTGEEPGPGPVEVNKTDLQTAVNKASKLEKADYTTNSWEAFAEALKAAQQVLDNKNATQQDVDTALSALQDAISKLEAATEPKPNPEPGVVDKAALNATINKAAAINLGLYTDDSANALRAALKKAREVSDNSNATQKQVDAAREALEKAIAALVKRPAAKGDGNVVSNTGSDVATIALAGLLLAGAGAAIAYRRNREQL
Regarding B1, the “transglycosylation activity (HPLC product peak; confirmed by MALDI-TOF-MS)” value in series [1], in series [2] and in series [3] was “it was demonstrated that the sugar chain was transferred to each peptide because peaks of transglycosylation products ("product" portion in each Figure) were observed” throughout.
